Measurements as given in patent publication US20260104424A1, “METHODS, SYSTEMS AND KITS FOR IDENTIFYING BIOACTIVE COMPOUNDS AND THERAPEUTIC METHODS AND COMPOSITIONS” (priority 2022, published 2026).
Entries after “also recorded” stand apart in the source; their conditions may differ.

Key:
CXCR2 = molecular target: T1, CXCR2 (Homo sapiens, UniProt P25025); experiment: M13 phage binding and screening against HEK293T cells overexpressing CXCR2; details: negative control protein on M13 phage
T1 sequence (P25025 1-360): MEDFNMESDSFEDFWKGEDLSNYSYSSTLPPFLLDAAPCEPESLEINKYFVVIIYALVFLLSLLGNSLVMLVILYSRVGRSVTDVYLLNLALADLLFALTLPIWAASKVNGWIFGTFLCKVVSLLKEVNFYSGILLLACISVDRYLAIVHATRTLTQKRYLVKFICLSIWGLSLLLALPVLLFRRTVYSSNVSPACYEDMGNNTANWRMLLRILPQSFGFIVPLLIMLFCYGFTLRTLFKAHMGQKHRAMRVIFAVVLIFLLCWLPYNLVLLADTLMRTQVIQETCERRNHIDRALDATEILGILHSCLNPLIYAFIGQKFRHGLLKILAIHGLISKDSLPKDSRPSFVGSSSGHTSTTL

EGFR = molecular target: T2, EGFR (Homo sapiens, UniProt P00533); experiment: Single-round M13 phage library screening against EGFR (Ig-EGFR beads, HEK293T cells overexpressing EGFR); type: binding; details: for identification as hit in screen against Ig-EGFR: AT, MV and secretome libraries, versus Isotype Ig, triplicate; for identification as hit in secretome library screen: beads coated with Ig-EGFR and HEK293T cells overexpressing EGFR
T2 construct: representing the extracellular domain of the target receptor fuse to the Fc region of immunoglobulin G; purchased R&D Systems 344-ER
Experimental: For the phage immunoprecipitation-based ligand discovery, 1 μg of EGFR-Fc (R&D Systems Cat No. 344-ER) and Etanercept (Mippipore Sigma Cat No. 185243-69-0) chimera proteins, representing the extracellular domain of the target receptor fuse to the Fc region of immunoglobulin G, was incubated with the pre-blocked phage library overnight at 4° C. The following day, 20 μL of protein G beads (ThermoFisher Cat No. 10009D) were added to the phage-chimera mixture and rotated for 4 hours at 4° C. to immunocapture (IP) all chimeras. The beads were then washed three times with PBS containing 0.01% NP-40 and stored in −80° C. before sequencing.

MrgprX4 = molecular target: T3, MrgprX4 (Homo sapiens, UniProt Q96LA9); experiment: MrgprX4 calcium signaling assay; type: cell-based; set-up: activation of MrgprX4 (agonist activity): dose or concentration left out as unconfirmed
T3 construct: GFP; expressed in transfected cells; host or cells: HEK293-MrgprX4-GFP
Experimental: The HEK293-MrgprX4-GFP and HEK293 cell lines were dissociated with 0.25% Trypsin (Gibco, Cat No. 25200-056) and collected after 1-2 minutes incubation. The harvested cells were then seeded at a density of 2.5E+04 cells/well in a 96-well half-area flat clear bottom black plate (Greiner Bio-One, Cat No. 675090) that was pre-treated with 0.1 mg/ml poly-D-lysine. The following day, cells were stained with FLIPR Calcium 5 dye (Molecular Devices, Cat No. R8186) in a loading buffer composed of Hanks' balanced salt solution (HBSS) with 20 mM HEPES, adjusted to pH 7.4. After a 30-minute incubation period at 37° C., TFPI (Acro Biosystems Cat No. TFI-H5226) was introduced, and the cells were incubated for an additional hour at 37° C. Subsequently, UDCA or the buffer control were automatically dispensed into the wells, which were immediately imaged using the Flexstation 3 system (Molecular Devices).

T3 sequence (Q96LA9 whole entry): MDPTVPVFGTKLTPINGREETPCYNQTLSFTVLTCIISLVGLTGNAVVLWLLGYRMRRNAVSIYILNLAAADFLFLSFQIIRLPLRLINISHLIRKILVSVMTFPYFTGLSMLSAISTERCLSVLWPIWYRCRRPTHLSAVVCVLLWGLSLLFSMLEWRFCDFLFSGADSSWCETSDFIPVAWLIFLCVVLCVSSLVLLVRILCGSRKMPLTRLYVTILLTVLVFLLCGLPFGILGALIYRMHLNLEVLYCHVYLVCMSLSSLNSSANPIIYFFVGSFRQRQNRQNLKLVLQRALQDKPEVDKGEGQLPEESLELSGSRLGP

Question: For “$-Lactoglobulin: negative control protein displayed on phage in the CXCR2 binding test”, which “non-specific binding to HEK293T-CXCR2 cells” value (CXCR2) is on record?
Answer: low non-specific binding

Question: What does the source list for betacellulin [BTC]?
Answer: identification as hit in screen against Ig-EGFR (EGFR): rediscovered; also recorded: identified; identification as hit in secretome library screen (EGFR): robustly identified

Question: Which results are given for “heparin binding EGF-like growth factor [HBEGF]”?
Answer: identification as hit in screen against Ig-EGFR (EGFR): rediscovered; identification as hit in screen against Ig-EGFR (EGFR; listed as HB-EGF): identified; identification as hit in secretome library screen (EGFR): robustly identified

Question: For “osteoprotegerin [OPG, reference compound]”, which “inhibitory activity on MrgprX4” value (MrgprX4; negative control protein, 1 uM (n=4)) is on record?
Answer: no obvious inhibitory activity

Question: tissue factor pathway inhibitor [TFPI] was tested. Which “activation of MrgprX4 (agonist activity)” value (MrgprX4) did it give?
Answer: does not activate

Question: What about the “inhibition of activation by UDCA” value (MrgprX4; UDCA (EC80), TFPI at 1 and 0.3 uM, n=7) of the same substance?
Answer: inhibiting the activation of UDCA

Question: What about the “concentrations down to which UDCA-induced activation of MrgprX4 was effectively inhibited” value (MrgprX4; calcium-signaling assay) of the same substance?
Answer: 0.3 µM

Question: And the “concentration at which MrgprX4 activation was inhibited” value (MrgprX4; in the presence of the MrgprX4 activator UDCA)?
Answer: 300 nM

Question: What does the source list for transforming growth factor-A [TGFA]?
Answer: identification as hit in screen against Ig-EGFR (EGFR): rediscovered; identification as hit in screen against Ig-EGFR (EGFR; listed as TGFa): identified; identification as hit in secretome library screen (EGFR): robustly identified
